The subject of data set [1] is hfRPE monolayers. Description: Transepithelial fluid transport (JV) across hfRPE monolayers, capacitance probe technique. The format is cell-based, human. Conditions: for normal fluid absorption after MEK inhibitor: IFN-γ (15 ng/ml, FIG. 10B) to basal bath after 72 hours 10 μM plus acute 100 μM MEK inhibitor; for rescue of apical MEK inhibitor-induced reduction in fluid absorption: basolateral IFN-γ (10 ng/ml, FIGS. 11A, 11B) after acute apical MEK inhibitor. From the text:
Confluent monolayers of hfRPE cultured on transwells were mounted in an electrophysiological chamber and transepithelial water flow (JV) measurements were made with a capacitance probe technique as described previously in Maminishkis 2006; Shi, G., et al., Invest Ophthalmol Vis Sci, 2008, 49, 4620-4630; Edelman, J. L., et al., Invest Ophthalmol Vis Sci, 1991, 32, 3033-3040; Jiang, C., et al., Science, 1993, 262, 424-427; and Maminishkis, A., et al., Invest Ophthalmol Vis Sci, 2002, 43, 3555-3566, each incorporated herein by reference in its entirety. In brief, the RPE is mounted in a water-jacketed ? ssing chamber and oriented vertically with the apical and basolateral membranes separately exposed to Ringer's solution held in bathing reservoirs. Stainless steel probes (Accumeasure System 1000; MT Instruments, Latham, N.Y.) are lowered into the apical and basolateral bathing wells to measure the capacitance of the air gap between the probe and fluid meniscus. Fluid transport rate JV (μl·cm^−2·hr^−1) is determined by monitoring the fluid movement-induced changes in the air gap capacitance at the apical and basolateral baths. The probes on both sides of the tissue are backed off from the surface of the Ringer's solution during a bathing solution change.
The capacitance probes are moved away from the bathing reservoirs and fresh control Ringer's solution perfused into the chamber. The fluid transport apparatus also allows continuous monitoring of TEP and RT, but for technical reasons (e.g., solution perfusion rates, TEP/RT sampling rates, and electrode stability) the initial changes in TEP and RT can only be compared to those seen in the electrophysiology experiments. Experiments are continued only if JV, TEP, and RT are not appreciably altered by this control-to-control Ringer's solution change. The water jacketed ? ssing chamber is placed in an incubator to maintain steady-state control over temperature, pCO2, and humidity.
Tissue viability was ascertained by recording transepithelial potential (TEP) and total tissue resistance (RT). It should be noted that the solution composition changes in this chamber were relatively slow (≈1-2 chamber volumes per minute) and the data sampling rate was once per minute, more than two orders of magnitude slower than the sampling rate in the electrophysiology chamber (see below). Therefore it was not possible to record fast changes, in seconds or minutes, in JV, TEP, or RT. After addition of IFNγ to the apical or basal baths, steady-state JV, TEP, and RT were recorded for 20-30 minutes. In control experiments, successive additions of IFNγ were made to test for the repeatability and reversibility of responses.
Effects of MEK inhibitor on human fetal retinal pigment epithelium (hfRPE) were measured following acute and chronic addition of inhibitor. Experiments were performed using hfRPE monolayers grown on semipermeable inserts with media access to apical and basal sides of the epithelium. In different sets of experiments, MEK inhibitor was added to apical, basal, or both sides of hfRPE mounted in modified ? ssing chambers. In chronic experiments hfRPE were pre-treated with 10 μM MEK inhibitor added to apical and basal baths for 24, 48, or 72 hours. For chronic experiments lasting more than 24 hours, transepithelial resistance (TER) was measured daily. Prior to the transfer of the epithelial monolayer to the ? ssing chamber, the TER of whole insert was compared to the TER measured in the ? ssing chamber. This procedure helps confirm the tissue integrity following the transfer from the cell culture insert to the ? ssing chamber. The TER summary data for chronic experiments contains cumulative recordings of TER obtained from inserts and ? ssing chambers.

For data set [2], the system named is hfRPE monolayers. Conditions: IFN-γ in basal bath, increased from 7; Li et al., 2009; cited from earlier work.
Data set [3] concerns patients with uveitic cystoid macular edema. Kind of data set: Phase I open label trial of topical IFNγ in patients with CME secondary to uveitis. It counts as in vivo, human. Here is the method: A phase I open label clinical trial was conducted aimed at investigating the safety and tolerability of topically applied IFN gamma in patients with uveitic cystoid macular edema. To test whether cystoid macular edema (CME), secondary to uveitis, is caused by the disequilibrium of the JAK/STAT and mTor signal transduction pathways in the retinal pigment epithelium (RPE), IFNγ was topically applied in human patients. Five participants with CME secondary to uveitis received a topical ocular instillation of IFNγ in a Phase I, non-randomized, prospective, uncontrolled, dose-escalation, single-center study. The study involved a one-time instillation or series of instillations of IFNγ on the cornea and measurement of a response with optical coherence tomography (OCT) over a three hour period.
A 25% decrease in macular thickness is observed at a post-instillation as compared to baseline. In the study, the first two participants received one instillation (each instillation contains 10 μg in 0.05 mL solution) on the cornea at time zero, the next two participants received two instillations, 10 minutes apart, for a total dosage of 20 and the final participant received three instillations, 10 minutes apart, for a total of 30 μg. OCT was obtained at −60 minutes, −30 minutes and just before the instillation(s). Repeat OCTs were taken at +30 minutes, +60 minutes and +120 minutes. All participants returned for a one-week safety visit.
The primary outcome was the change in central macular thickness as measured by OCT in response to interferon IFNγ as compared with baseline. Secondary outcomes included changes in macular volume as measured by OCT, visual acuity, intraocular pressure, intraocular inflammation and ocular surface irritation assessed by fluorescein staining of the cornea and conjunctiva to assess toxicity. For safety measurements, the following were measured: the presence of ocular surface irritation assessed by fluorescein staining of the cornea and conjunctiva to assess toxicity; the number and severity of systemic and ocular toxicities and adverse events; and the proportion of participants with a visual loss of ≧15 ETDRS letters.
All participants undergo a dilated ophthalmic examination the day of the testing. One eye is chosen as the study eye. The participants receive the evaluation around 12:00 p.m. Participants then have a OCT at −60 minutes, −30 minutes and just before the ocular instillation. The ocular instillation occurs no earlier than 1:00 p.m. Repeat OCT recordings are taken at +30, +60 and +120 minutes after instillation. There is a window of ±15 minutes for each OCT test.
OCT testing is performed with the Cirrus™ high-definition OCT (Carl Zeiss Meditec, Inc.) scanner using a 512×128 scan pattern where a 6×6-mm area on the retina is scanned with 128 horizontal lines, each consisting of 512 A-scans per line (a total of 65,536 sampled points) within a scan time of 2.4 seconds. The scanner automatically focuses on the macula. Data for macular thickness calculations are collected from an array of A-scans distributed across the macular using the macular thickness analysis algorithm. The three pre-instillation measurements are averaged to calculate the baseline macular thickness measurement. Post-instillation OCT macular thickness calculations (+30, +60 and +120 minutes) is compared to the baseline measurement separately. A 25% reduction in central macular thickness is observed in treated patients.
Interferon γ-1b is administered as follows: • 1. Topical tetracaine 1% or proparacaine 0.5% drops are applied to the study eye surface one to two minutes prior to instillation. • 2. The participant applies punctal pressure to his/her […] eye. • 3. The investigator holds the participant's study eye open. • 4. A volume of 0.05 mL of IFNγ is instilled on the center of the study eye's cornea from a tuberculin syringe. • 5. […]

Data set [4] deals with animal model of retinal-reattachment. Conditions: topical addition, cited from earlier work.
Data set [5] relates to patients with central serious chorioretinopathy. Description: Topical IFN gamma in patients with central serious chorioretinopathy (ongoing trial). The format is in vivo, human. An excerpt:
Topical IFN gamma was also studied in the treatment of serious retinal detachments in patients with central serious chorioretinopathy. […] This occurred during the second week of a two-week course of therapy.

B1: IFNγ: interferon-γ or, equivalently, interferon-γ1b (CAS number 82115-62-6), pleiotropic cytokine (protein, UniProt P01579 24-161, looked up)
Interferon gamma: QDPYVKEAENLKKYFNAGHSDVADNGTLFLGILKNWKEESDRKIMQSQIVSFYFKLFKNFKDDQSIQKSVETIKEDMNVKFFNSNKKKRDDFEKLTNYSVTDLNVQRKAIHELIQVMAELSPAAKTGKRKRSQMLFRG
For B1, in the data set on hfRPE monolayers [1], the “normal fluid absorption after MEK inhibitor” value is given as “rescue of fluid transport” and the “rescue of apical MEK inhibitor-induced reduction in fluid absorption” value is “reverse”. In the data set on hfRPE monolayers [1] (listed as IFN-γ), the “normal fluid absorption after MEK inhibitor” value is “partially restored” and the “rescue of apical MEK inhibitor-induced reduction in fluid absorption” value was “almost completely rescued”. For the same molecule, the “restoration of MEK inhibitor-decreased fluid absorption” value with hfRPE monolayers [1] (IFN-γ added to basolateral bath after chronic 10 μM (72 hours) plus acute apical 100 μM MEK inhibitor) is “almost completely restored”. Besides, the “increase of JV” value with hfRPE monolayers [1] (IFNγ 5 ng/ml in the basal bath (FIG. 7)) was about 8.6 μl·cm−2·hr^−1. In the data set with hfRPE monolayers [1] (IFNγ added to the basal side of hfRPE (FIG. 7)), the “fluid transport across RPE” value was “significantly increase”. In addition, the “cell viability as measured by TEP and RT” value in the data set with hfRPE monolayers [1] (IFNγ treatment of hfRPE) was “did not affect cell viability”. In addition, the “mean JV after IFNγ” value in the data set on hfRPE monolayers [1] (increased from 12.9±1.6, mean±SEM, p<0.01) is 20.5±3.1 μl·cm−2·hr^−1. In addition, the “steady state Jv after IFN-γ” value in the data set with hfRPE monolayers [2] is 16 μl·cm−2·hr^−1. In data set [3] (5 patients), the “ocular surface irritation by slit lamp exam” value is reported as “no patient developed evidence of ocular surface irritation” and the serious adverse events result is reported as “no serious adverse events”. Moreover, the tolerability of drops result in data set [3] (5 patients, 1-week period) was “well tolerated”. In addition, the “patients reporting irritation or other new ocular complaints” value in data set [3] (5 patients, during 1-week period or beyond) is listed as “none of the 5 patients”. Further, the “thickness and volume of macular edema by OCT” value in data set [3] (most patients) is “slight (albeit clinically insignificant) decrease”. Also, the “decrease in (central) macular thickness by OCT compared to baseline” value in data set [3] (topical instillation 10-30 μg, post-instillation +30, +60, +120 minutes) came to 25%. Also, the subretinal fluid entry in data set [4] (monitored by high resolution OCT) is listed as “remove fluid from the subretinal space”. Also, the JAK/STAT pathway result in data set [4] was “activated”. In addition, the “resolution of redness after cessation of drops” value in data set [5] (both affected patients, no persistent ocular changes) was “within one day”. The “clinical outcome in serious retinal detachments” value in data set [5] (four patients studied so far) was “some clinical success”. For the same molecule, the “painless conjunctival injection with no change in vision” value in data set [5] (second week of a two-week course of therapy) is reported as “two of the four patients”.

The values above are taken from patent publication US20150265679A1, “METHOD OF REDUCING ADVERSE EFFECTS IN A CANCER PATIENT UNDREGOING TREATMENT WITH A MEK INHIBITOR” (THE UNITED STATES OF AMERICA, as represented by THE …, priority 2013, published 2015).
